Laboratory results taken from paper PMC4192513, “A Novel Protein-Protein Interaction in the RES (REtention and Splicing) Complex*” (The Journal of Biological Chemistry, 2014).

T1: Snu17p (residues 1-113) (S. cerevisiae, UniProt P40565 1-113)
T1 construct: 15N- or 15N/13C-labelled for NMR; also called Snu17p RRM with N-terminal unstructured extension; source: E. coli BL21(DE3) pLysS, purified (Ni-NTA, TEV cleavage, second Ni-NTA, SEC Superdex 75); not shown: His6, N-terminal, cleaved; GST, N-terminal, cleaved
T1 sequence (looked up): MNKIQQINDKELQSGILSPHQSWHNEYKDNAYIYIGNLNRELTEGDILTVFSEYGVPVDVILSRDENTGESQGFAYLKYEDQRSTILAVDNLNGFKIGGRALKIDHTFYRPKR


Columns and labels:
Snu17p (residues 1-113) [1] = target: T1, Snu17p (residues 1-113); assay: NMR titration; 1H,15N correlation (HSQC) spectra of 15N-labelled Snu17p (residues 1-113) on addition of Bud13p peptides; 298 K; 20 mM sodium phosphate pH 6.3, 25 mM NaCl, 2 mM DTT or TCEP; details: both partners purified
Snu17p (residues 1-113) [2] = target: T1, Snu17p (residues 1-113); assay: ITC; VP-ITC, 25 °C, NMR buffer (20 mM sodium phosphate pH 6.3, 25 mM NaCl, 2 mM DTT or TCEP); Snu17p (residues 1-113) 30-70 uM in the cell, Bud13p ligands 0.6-1.1 mM in the syringe; one- or two-step binding models; details: both partners purified

binding result (Snu17p (residues 1-113) [1]) | fold weaker dissociation constant than the longer Bud13p ligands (Snu17p (residues 1-113) [2]) | Binder
binds | – | Bud13p (residues 201-266) (domain or fragment, also called 66-mer Bud13p peptide; very long Bud13p peptide; source: E. coli BL21(DE3) pLysS, purified (Ni-NTA, TEV cleavage, second Ni-NTA, SEC Superdex 75); not shown: His6, N-terminal, cleaved; GST, N-terminal, cleaved) not shown
– | 50 fold | ENRFAIMPGSRWDGVHRSNGFE (peptide, UniProt P46947 221-242, looked up, Bud13p, S. cerevisiae, residues 221-242; also called 22-mer Bud13p peptide; shorter Bud13p peptide; source: synthetic peptide, bought: Peptide Specialty Laboratories (Heidelberg), dialyzed) [Bud13p peptide (residues 221-242)]
